# Measurements published in the Immune Epitope Database (IEDB).
# How the values were obtained:
# HLA-A*68:02 = assay: IEDB peptide-MHC binding, cellular MHC/competitive/fluorescence; ≥ and ≤ were set here for values at or beyond the usual limits of such assays
# HLA-A*02:01 = assay: IEDB peptide-MHC binding, purified MHC/competitive/radioactivity; ≥ and ≤ were set here for values at or beyond the usual limits of such assays
# HLA-A*02:06 = assay: as above
# HLA-A*02:03 = assay: as above
# HLA-A*02:02 = assay: as above
# [1] = source organism: Hepacivirus hominis
# [2] = source organism: Vaccinia virus WR
Sequence,IC50 (HLA-A*68:02; [2]),IC50 (HLA-A*02:01; [2]),IC50 (HLA-A*02:06; [2]),IC50 (HLA-A*02:03; [2]),IC50 (HLA-A*02:02; [2]),further results
KLFPRLPGI,,,,,,IC50 (HLA-A*68:02; [1]): 40.2 µM; IC50 (HLA-A*02:01; [1]): 0.0013 µM; IC50 (HLA-A*02:06; [1]): 0.0022 µM; IC50 (HLA-A*02:03; [1]): 0.0005 µM; IC50 (HLA-A*02:02; [1]): 0.0083 µM
AQFLYLYAL,,,,,,IC50 (HLA-A*68:02; source organism: SARS-CoV1): 9.62 µM; IC50 (HLA-A*02:01; source organism: SARS-CoV1): 0.00039 µM; IC50 (HLA-A*02:06; source organism: SARS-CoV1): 0.00035 µM; IC50 (HLA-A*02:03; source organism: SARS-CoV1): 0.0062 µM; IC50 (HLA-A*02:02; source organism: SARS-CoV1): 0.00092 µM
GMYYPTNDI,≥ 70 µM,0.268 µM,1.68 µM,0.0087 µM,0.053 µM,
VLTSVDIETA,11.4 µM,0.747 µM,1.41 µM,0.421 µM,0.062 µM,
GIAIFNNRNL,11.1 µM,1.33 µM,4.72 µM,2.04 µM,0.0051 µM,
RMPTDMLKL,≥ 70 µM,1.84 µM,0.678 µM,0.106 µM,0.95 µM,
FLLALLSCL,,,,,,IC50 (HLA-A*68:02; [1]): 14 µM; IC50 (HLA-A*02:01; [1]): 0.0028 µM; IC50 (HLA-A*02:06; [1]): 0.024 µM; IC50 (HLA-A*02:03; [1]): 0.017 µM; IC50 (HLA-A*02:02; [1]): 0.0026 µM
YALCTLLHL,,,,,,IC50 (HLA-A*68:02; source organism: SARS-CoV1): 5.62 µM; IC50 (HLA-A*02:01; source organism: SARS-CoV1): 0.0087 µM; IC50 (HLA-A*02:06; source organism: SARS-CoV1): 0.0015 µM; IC50 (HLA-A*02:03; source organism: SARS-CoV1): 0.768 µM; IC50 (HLA-A*02:02; source organism: SARS-CoV1): 1.32 µM
SQMETDFLEL,,,,,,IC50 (HLA-A*68:02; source organism: SARS-CoV1): 20.1 µM; IC50 (HLA-A*02:01; source organism: SARS-CoV1): 0.092 µM; IC50 (HLA-A*02:06; source organism: SARS-CoV1): 0.021 µM; IC50 (HLA-A*02:03; source organism: SARS-CoV1): 0.597 µM; IC50 (HLA-A*02:02; source organism: SARS-CoV1): 0.227 µM
LLLENKSLTI,9.58 µM,0.439 µM,1.32 µM,0.985 µM,0.982 µM,
AVTLNRIKIA,11 µM,1.25 µM,2.29 µM,1.29 µM,1.72 µM,
FQFICNLLLL,,,,,,IC50 (HLA-A*68:02; source organism: SARS-CoV1): 9.08 µM; IC50 (HLA-A*02:01; source organism: SARS-CoV1): 0.0053 µM; IC50 (HLA-A*02:06; source organism: SARS-CoV1): 0.00087 µM; IC50 (HLA-A*02:03; source organism: SARS-CoV1): 0.062 µM; IC50 (HLA-A*02:02; source organism: SARS-CoV1): 0.0079 µM
YLLMHLVSL,7.75 µM,0.0035 µM,0.00025 µM,0.0014 µM,0.00018 µM,
SMYVIPDEL,7.09 µM,0.091 µM,2.82 µM,0.013 µM,0.005 µM,
FLLNKEMYL,,,,,,IC50 (HLA-A*68:02; source organism: SARS-CoV1): 12 µM; IC50 (HLA-A*02:01; source organism: SARS-CoV1): 0.0011 µM; IC50 (HLA-A*02:06; source organism: SARS-CoV1): 0.0016 µM; IC50 (HLA-A*02:03; source organism: SARS-CoV1): 0.0011 µM; IC50 (HLA-A*02:02; source organism: SARS-CoV1): 0.00033 µM
SLGKSPLPSL,12.8 µM,0.134 µM,1.43 µM,0.047 µM,0.0041 µM,
IMAFILGIII,14.7 µM,1.11 µM,3.19 µM,3.16 µM,0.632 µM,

Sequence,IC50 (HLA-A*68:02; [2]),IC50 (HLA-A*02:01; [2]),IC50 (HLA-A*02:06; [2]),IC50 (HLA-A*02:03; [2]),IC50 (HLA-A*02:02; [2]),further results
VLWTVFHGA,,,,,,IC50 (HLA-A*68:02; [1]): 34.8 µM; IC50 (HLA-A*02:01; [1]): 0.1 µM; IC50 (HLA-A*02:06; [1]): 0.189 µM; IC50 (HLA-A*02:03; [1]): 0.836 µM; IC50 (HLA-A*02:02; [1]): 0.759 µM
WLKDSAIMVA,10.1 µM,0.673 µM,4.84 µM,1.32 µM,0.015 µM,
KLLSTSNVIT,≥ 70 µM,1.12 µM,1.55 µM,3.35 µM,2.26 µM,
YLGHSAGFTA,8.21 µM,0.021 µM,0.144 µM,0.086 µM,0.016 µM,
VLEKKVCAIT,≥ 70 µM,3.51 µM,1.68 µM,1.24 µM,0.59 µM,
PTILATLNTL,9.74 µM,1.34 µM,0.771 µM,0.13 µM,0.374 µM,
VLLPFYETL,24.3 µM,0.0072 µM,0.218 µM,0.267 µM,4.06 µM,
YISRDELWA,52.7 µM,0.75 µM,1.2 µM,0.242 µM,0.333 µM,
LLVTLAILTA,,,,,,IC50 (HLA-A*68:02; source organism: SARS-CoV1): 16.7 µM; IC50 (HLA-A*02:01; source organism: SARS-CoV1): 0.033 µM; IC50 (HLA-A*02:06; source organism: SARS-CoV1): 0.032 µM; IC50 (HLA-A*02:03; source organism: SARS-CoV1): 0.043 µM; IC50 (HLA-A*02:02; source organism: SARS-CoV1): 0.0044 µM
SLDQTHIKTI,7.58 µM,0.759 µM,2.46 µM,0.015 µM,1.43 µM,
FLDWIKDIM,26.8 µM,0.019 µM,0.162 µM,0.297 µM,0.00078 µM,
IAMWLLLLSI,,,,,,IC50 (HLA-A*68:02; source organism: SARS-CoV1): 17.2 µM; IC50 (HLA-A*02:01; source organism: SARS-CoV1): 0.216 µM; IC50 (HLA-A*02:06; source organism: SARS-CoV1): 0.498 µM; IC50 (HLA-A*02:03; source organism: SARS-CoV1): 1.9 µM; IC50 (HLA-A*02:02; source organism: SARS-CoV1): 0.086 µM
SINITPDDGL,5.89 µM,1.02 µM,0.00034 µM,1.23 µM,0.413 µM,
SMSQELAEL,42.9 µM,0.084 µM,0.186 µM,0.0077 µM,0.004 µM,
VMFNGVTFST,,,,,,IC50 (HLA-A*68:02; source organism: SARS-CoV1): 13.7 µM; IC50 (HLA-A*02:01; source organism: SARS-CoV1): 0.0085 µM; IC50 (HLA-A*02:06; source organism: SARS-CoV1): 0.131 µM; IC50 (HLA-A*02:03; source organism: SARS-CoV1): 0.075 µM; IC50 (HLA-A*02:02; source organism: SARS-CoV1): 0.00069 µM
GAFMYTKHSM,9.6 µM,2 µM,3.14 µM,0.458 µM,0.544 µM,
WMMLLIAQA,,,,,,IC50 (HLA-A*68:02; [1]): 15.8 µM; IC50 (HLA-A*02:01; [1]): 0.075 µM; IC50 (HLA-A*02:06; [1]): 0.712 µM; IC50 (HLA-A*02:03; [1]): 0.047 µM; IC50 (HLA-A*02:02; [1]): 0.053 µM
